Experimental findings from publication PMC12040651, “cAMP-independent Crp homolog adds to the multi-layer regulatory network in Porphyromonas gingivalis” are described below.

What is called stoichiometry N is the number of molecules, sites or subunits per partner or assembly.

The target of data set [1] is Crp^Pg protein (Porphyromonas gingivalis A7436 Crp homolog, CRP/FNR superfamily) (Porphyromonas gingivalis A7436). The data set is described as follows: cross-linking; 10 uM purified Crp^Pg in PBS, 30 min at room temperature, without or with 1 mM cAMP, then 0.2% formaldehyde for 1 h at 37°C; SDS-PAGE with CBB G-250 staining; monomer to dimer.
For the next data set, the target named is T1, CrpPg (Crp homolog) (Porphyromonas gingivalis A7436, UniProt Q7MAW7 1-232).
T1 sequence: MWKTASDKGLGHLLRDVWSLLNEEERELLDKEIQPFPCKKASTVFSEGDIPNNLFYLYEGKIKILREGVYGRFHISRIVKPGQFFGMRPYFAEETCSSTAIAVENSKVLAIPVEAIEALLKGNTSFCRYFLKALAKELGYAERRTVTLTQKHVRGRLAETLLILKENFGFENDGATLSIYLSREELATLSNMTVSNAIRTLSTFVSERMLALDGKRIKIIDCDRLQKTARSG
Put plainly: EMSA. Particulars: protein: recombinant, tags: 6xHis-MBP N-terminal, removed with Factor Xa, chain copies: 2, blunt. (In general: Mobility shift assays separate free from complexed probe on a gel.)

In turn, “Crp^Pg protein (Porphyromonas gingivalis A7436 Crp homolog, CRP/FNR superfamily) (natural protein)” returned a stoichiometry N in data set [1] of 2.

B1: crpPg promoter fragment 4 (dsDNA)
DNA 1: CTCATAATAATAGTTCTACGGCCTTTCTTCCTCGTTGTACGGATTTGAGCAAATAGACATTCTCTGAACACTTATATGTGGAAGACAG
DNA 2: CTGTCTTCCACATATAAGTGTTCAGAGAATGTCTATTTGCTCAAATCCGTACAACGAGGAAGAAAGGCCGTAGAACTATTATTATGAG
In the case of B1, the binding result with CrpPg (Crp homolog) (label: 5' biotin via PBM_0206 (probe)) is “binds”.

B2: mfa promoter fragment 5 (dsDNA)
DNA 1: ATTTAATATTAATCCTTTTAAACATTTGGCTTATGAAGTTAAACAAAATGTTTTTGGTCGGAGCATTGCTCTCATTGGGCT
DNA 2: AGCCCAATGAGAGCAATGCTCCGACCAAAAACATTTTGTTTAACTTCATAAGCCAAATGTTTAAAAGGATTAATATTAAAT
In the case of B2, the binding result with CrpPg (Crp homolog) (label: 5' biotin via PBM_0217 (probe)) was “binds”.
